In publication PMC3643581:

Biological target: rPTB4 (pQE-PTB4) (UniProt P26599 1-557)
Assay: UV cross-linking

Sequence of rPTB4 (pQE-PTB4) (P26599 whole entry): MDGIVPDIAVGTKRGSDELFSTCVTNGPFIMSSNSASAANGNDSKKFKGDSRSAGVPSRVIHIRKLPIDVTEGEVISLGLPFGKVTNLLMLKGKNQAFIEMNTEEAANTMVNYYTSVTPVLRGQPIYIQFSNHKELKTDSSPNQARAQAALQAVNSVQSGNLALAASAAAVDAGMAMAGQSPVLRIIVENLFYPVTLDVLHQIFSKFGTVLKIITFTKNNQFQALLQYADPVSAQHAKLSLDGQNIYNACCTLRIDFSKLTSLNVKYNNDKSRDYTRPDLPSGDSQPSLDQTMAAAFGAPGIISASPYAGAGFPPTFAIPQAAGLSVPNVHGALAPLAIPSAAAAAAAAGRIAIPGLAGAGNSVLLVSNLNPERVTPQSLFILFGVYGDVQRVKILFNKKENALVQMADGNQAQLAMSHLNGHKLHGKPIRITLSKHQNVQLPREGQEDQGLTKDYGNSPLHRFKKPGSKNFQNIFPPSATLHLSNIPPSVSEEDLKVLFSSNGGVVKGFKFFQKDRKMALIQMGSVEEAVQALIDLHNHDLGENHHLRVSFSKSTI

Question: Does GGGAGACAAGCUCCUCCUGCGCUCUUUGCUUGCCCUGCUGUGUCGAAUU (ssRNA) [MBNL SELEX RNA D12] bind?
Answer: Result: no binding
